From patent US20130336947, “PEPTIDES AND USES” (FUNDACIÓ PRIVADA CENTRE DE REGULACIÓ GENÓMICA, published 2013) come the findings set out here.

What all share (settings): tags: N-terminal NLS PKKKRKV; TNT T7 expression from PCR product; label: DIG
Data set [1] concerns the target ZF6xHunt (Artificial). In words: EMSA; specific versus mutated sequences. In general terms: A gel shift assay detects complexes by their altered migration in electrophoresis.
Data set [2] addresses ZF6xHunt (Artificial). In words: EMSA; binds equally to (GCA)x6.
Data set [3] concerns the target ZF6xHunt (Artificial). In words: EMSA; binds equally to (GCA-GCT)x3.

Chain of ZF6xHunt (Artificial) (chain, as listed by the source): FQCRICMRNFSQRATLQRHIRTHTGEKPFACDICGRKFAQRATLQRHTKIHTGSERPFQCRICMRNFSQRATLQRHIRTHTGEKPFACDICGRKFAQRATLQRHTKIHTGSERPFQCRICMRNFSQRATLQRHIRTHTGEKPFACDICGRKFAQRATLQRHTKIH

B1: (CAG)x7 probe (dsDNA)
DNA 1: CAGCAGCAGCAGCAGCAGCAG
DNA 2: CTGCTGCTGCTGCTGCTGCTG
Consider B1, for which the binding result with ZF6xHunt [1] is “binds”.

B2: (GCA-GCT)x3 alternate probe (dsDNA)
DNA 1: GCAGCTGCAGCTGCAGCT
DNA 2: AGCTGCAGCTGCAGCTGC
Consider B2, for which the binding result with ZF6xHunt [2] was “binds”.

B3: (GCA)x6 probe (dsDNA)
DNA 1: GCAGCAGCAGCAGCAGCA
DNA 2: TGCTGCTGCTGCTGCTGC
With B3, in the data set with ZF6xHunt [3], the binding result is listed as “binds”.
